# Data published in US6358732.
# Tested on: CDF (CDE-binding factor)
# Experiment: cell_activity
# Conditions: transient transfection NIH3T3, luciferase; indirect
substance,measurement,value
cdc25C promoter CDE-CHR region,activity (fold growing/G0),17.5
